Results: PMC2432501, “Binding to the Minor Groove of the Double-Strand, Tau Protein Prevents DNA from Damage by Peroxidation”

Legend:
tau23 [1] = target: T1, tau23 (human, UniProt P10636-2 1-352); assay: EMSA; 20 mM Tris pH 7.2, 50 mM NaCl, 0.5 mM DTT, 1 mM MgCl2, 0.5 mM EDTA, room temperature 20-30 min; native PAGE in 1xTBE (20% gel at 4 C, or 8% for the 26 bp assay); conditions: protein: recombinant; 5' overhang 1 nt at both ends
tau23 [2] = target: T1, tau23; assay: EMSA; retardation depends on tau/DNA ratio; 20 mM Tris pH 7.2, 50 mM NaCl, 0.5 mM DTT, 1 mM MgCl2, 0.5 mM EDTA, room temperature 20-30 min; native PAGE in 1xTBE (20% gel at 4 C, or 8% for the 26 bp assay); conditions: protein: recombinant; 5' overhang 1 nt at both ends
tau23 [3] = target: T1, tau23; assay: EMSA; shift from [tau]/[bp] 1/100, greatest at 1/3; 20 mM Tris pH 7.2, 50 mM NaCl, 0.5 mM DTT, 1 mM MgCl2, 0.5 mM EDTA, room temperature 20-30 min; native PAGE in 1xTBE (20% gel at 4 C, or 8% for the 26 bp assay); conditions: protein: recombinant; 5' overhang 1 nt at both ends
tau23 [4] = target: T1, tau23; assay: AFM; protein/DNA 8/1; particle 8.54 nm vs 7.82 nm tau alone; 20 mM Tris pH 7.2, 50 mM NaCl, 0.5 mM DTT, 1 mM MgCl2, 0.5 mM EDTA, room temperature 20-30 min; native PAGE in 1xTBE (20% gel at 4 C, or 8% for the 26 bp assay); conditions: protein: recombinant; 5' overhang 1 nt at both ends
tau23 [5] = target: T1, tau23; assay: EMSA; marked shift from [protein]/[DNA] 1/2; 2.5 uM DNA; 20 mM Tris pH 7.2, 50 mM NaCl, 0.5 mM DTT, 1 mM MgCl2, 0.5 mM EDTA, room temperature 20-30 min; native PAGE in 1xTBE (20% gel at 4 C, or 8% for the 26 bp assay); conditions: protein: recombinant; blunt

T1 sequence (P10636 other isoform, or with tags, fused parts or gaps): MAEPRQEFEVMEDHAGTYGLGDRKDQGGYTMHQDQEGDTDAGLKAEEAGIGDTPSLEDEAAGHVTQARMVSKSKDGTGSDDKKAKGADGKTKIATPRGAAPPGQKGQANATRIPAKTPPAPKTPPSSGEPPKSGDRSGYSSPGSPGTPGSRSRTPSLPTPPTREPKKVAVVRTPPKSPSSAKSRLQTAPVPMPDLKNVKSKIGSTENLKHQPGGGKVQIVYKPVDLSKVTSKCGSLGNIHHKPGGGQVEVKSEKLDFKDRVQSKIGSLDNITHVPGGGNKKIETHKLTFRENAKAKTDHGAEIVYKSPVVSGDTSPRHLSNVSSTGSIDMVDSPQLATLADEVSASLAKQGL

B1: 13 bp DNA (dsDNA)
DNA 1: ACGTGCATAAATAA
DNA 2: CTTATTTATGCACG
Question: Does B1 bind (tau23 [1])?
Answer: Result: binds

B2: 14 bp DNA (dsDNA)
DNA 1: ACCGTGCATAAATAA
DNA 2: CTTATTTATGCACGG
Question: Does B2 bind (tau23 [2])?
Answer: Result: binds

B3: 26 bp DNA (dsDNA)
DNA 1: ACTCCGTGCATAAATAATAGGCACTCG
DNA 2: CCGAGTGCCTATTATTTATGCACGGAG
Question: Does B3 bind (tau23 [3])?
Answer: Result: binds

B4: 12 bp DNA (dsDNA)
DNA 1: AGTGCATAAATAA
DNA 2: CTTATTTATGCAC
Question: Does B4 bind (tau23 [4])?
Answer: Result: no binding

B5: 20 bp DNA (dsDNA)
DNA 1: AACGAGAAGCGCGATCACAT
DNA 2: ATGTGATCGCGCTTCTCGTT
Question: Does B5 bind (tau23 [5])?
Answer: Result: binds
